Measured values reported in patent publication US20170166655A1.

How the values were obtained:
[1] = target: human V158 FcγRIIIa, extracellular region (human) (UniProt P08637); experiment: SPR
[2] = target: human F158 FcγRIIIa, extracellular region (human) (UniProt P08637); experiment: SPR
[3] = target: human FcγRIIIa on human PBMC effector cells (human) (UniProt P08637); experiment: cell-based or functional assay
[4] = target: human V158 FcγRIIIa, extracellular region (human) (UniProt P08637); experiment: AlphaScreen competition
H131 FcγRIIa (human) = H131 FcγRIIa (human) (UniProt P12318); experiment: SPR
FcγRI (human) = FcγRI (human) (UniProt P12314); experiment: SPR
R131 FcγRIIa (human) = R131 FcγRIIa (human) (UniProt P12318); experiment: SPR
F158 FcγRIIIa (human) = F158 FcγRIIIa (human) (UniProt P08637); experiment: SPR
V158 FcγRIIIa (human) = V158 FcγRIIIa (human) (UniProt P08637); experiment: SPR
FcγRIIb (human) = FcγRIIb (human) (UniProt P31994); experiment: SPR
[5] = target: human F158 FcγRIIIa, extracellular region (human) (UniProt P08637); experiment: AlphaScreen competition

alemtuzumab IgG1 V264I (antibody)
Kd [1]: 64 nM | Kd [2]: 550 nM

trastuzumab IgG1 A330Y/I332E (antibody)
ADCC EC50, FIG. 117b [3]: 0.9 ng/mL | ADCC Fold WT, FIG. 117b [3]: 12.8 fold | ADCC log(EC50), FIG. 117b [3]: -0.04 log(ng/ml)

alemtuzumab IgG1 N297D/A330Y/I332E (aglycosylated) (antibody)
fold of glycosylated WT alemtuzumab [4]: 0.4 fold

rituximab IgG1 WT (antibody)
ADCC EC50, FIG. 118b, WIL2-S target cells, human PBMCs [3]: 1.7 ng/mL | ADCC EC50, FIG. 118c, PBMCs F158/F158 FcγRIIIa [3]: 5.9 ng/mL | ADCC log(EC50), FIG. 118b, WIL2-S target cells, human PBMCs [3]: 0.23 log(ng/ml) | ADCC log(EC50), FIG. 118c, PBMCs F158/F158 FcγRIIIa [3]: 0.77 log(ng/ml)

trastuzumab IgG1 E283L (antibody)
Fold WT [1]: 3.68 fold | Fold WT [4]: 19.9 fold

alemtuzumab IgG1 S239D/N297D/I332E (aglycosylated) (antibody)
fold of glycosylated WT alemtuzumab [4]: 0.8 fold

trastuzumab IgG1 S239D/I332E/S298A (antibody)
Kd [1]: 8.7 nM | Kd [2]: 4.9 nM

alemtuzumab IgG1 E258Y (antibody)
Fold WT [1]: 1.77 fold

alemtuzumab IgG1 S304T (antibody)
Fold WT [1]: 12.8 fold

alemtuzumab IgG1 E258H (antibody)
Fold WT [1]: 5.5 fold | Fold WT [4]: 2.35 fold

alemtuzumab IgG1 E283L (antibody)
Fold WT [1]: 2.56 fold

IgG2_S239D/I332E/^V234L
Kd (H131 FcγRIIa (human)): 29 nM | Kd (FcγRI (human)): 0.634 nM | Kd (R131 FcγRIIa (human)): 27.8 nM | Kd (F158 FcγRIIIa (human)): 96.2 nM | Kd (V158 FcγRIIIa (human)): 33.7 nM | Kd (FcγRIIb (human)): 95.8 nM

IgG2_S239D/I332E/^P233EL
Kd (H131 FcγRIIa (human)): 71.8 nM | Kd (FcγRI (human)): 1.94 nM | Kd (R131 FcγRIIa (human)): 64.2 nM | Kd (F158 FcγRIIIa (human)): 59.6 nM | Kd (V158 FcγRIIIa (human)): 21.6 nM | Kd (FcγRIIb (human)): 264 nM

alemtuzumab IgG1 E272H (antibody)
Fold WT [1]: 384 fold

alemtuzumab IgG1 R255Y (antibody)
Fold WT [1]: 1.41 fold

trastuzumab IgG1 S298A/E333A/K334A (antibody)
ADCC EC50, FIG. 117c, PBMCs F158/F158 FcγRIIIa [3]: 0.2 ng/mL | ADCC Fold WT, FIG. 117c, PBMCs F158/F158 FcγRIIIa [3]: 3.6 fold | ADCC log(EC50), FIG. 117c, PBMCs F158/F158 FcγRIIIa [3]: -0.72 log(ng/ml)

IgG2_P233E/V234L/A235L/^235G/S239D/I332E/G327A
Kd (H131 FcγRIIa (human)): 127 nM | Kd (R131 FcγRIIa (human)): 63.9 nM | Kd (F158 FcγRIIIa (human)): 12.5 nM | Kd (FcγRIIb (human)): 101 nM

alemtuzumab IgG1 H268D (antibody)
Fold WT [1]: 5.66 fold

IgG2_S239D/I332E/^P233L
Kd (H131 FcγRIIa (human)): 82.2 nM | Kd (FcγRI (human)): 3.28 nM | Kd (R131 FcγRIIa (human)): 67.4 nM | Kd (F158 FcγRIIIa (human)): 53.2 nM | Kd (V158 FcγRIIIa (human)): 25.2 nM | Kd (FcγRIIb (human)): 238 nM

alemtuzumab IgG1 V284E (antibody)
Fold WT [1]: 1.51 fold

trastuzumab IgG1 A330L/I332E (antibody)
ADCC EC50, FIG. 117b [3]: 1.1 ng/mL | ADCC Fold WT, FIG. 117b [3]: 10.5 fold | ADCC log(EC50), FIG. 117b [3]: 0.04 log(ng/ml)

alemtuzumab IgG1 S298A (antibody)
Kd [1]: 52 nM | Kd [2]: 285 nM

IgG2_P233E/V234L/A235L/^235G/G327A
Kd (H131 FcγRIIa (human)): 313 nM | Kd (FcγRI (human)): 0.145 nM | Kd (R131 FcγRIIa (human)): 260 nM | Kd (F158 FcγRIIIa (human)): 69400 nM | Kd (V158 FcγRIIIa (human)): 73.6 nM | Kd (FcγRIIb (human)): 663 nM

rituximab IgG1 S298A/E333A/K334A (antibody)
ADCC EC50, FIG. 118b [3]: 0.37 ng/mL | ADCC Fold WT, FIG. 118b [3]: 4.6 fold | ADCC log(EC50), FIG. 118b [3]: -0.44 log(ng/ml)

alemtuzumab IgG1 WT (antibody)
Kd [1]: 68 nM | Kd [2]: 730 nM

alemtuzumab IgG1 E272R (antibody)
Fold WT [1]: 1.38 fold

alemtuzumab IgG1 K326E (antibody)
Fold WT [1]: 3.13 fold | Fold WT [4]: 1.86 fold

alemtuzumab IgG1 S239E (antibody)
Fold WT [1]: 3.28 fold | Fold WT [4]: 2.64 fold

trastuzumab IgG1 K334I (antibody)
Fold WT [1]: 7.1 fold | Fold WT [4]: 15.2 fold

alemtuzumab IgG1 K246H (antibody)
Fold WT [1]: 22.4 fold

alemtuzumab IgG1 S267E (antibody)
Fold WT [1]: 2.62 fold

IgG2_P233E/V234L/A235L/^235G/S239D/I332E
Kd (H131 FcγRIIa (human)): 68.3 nM | Kd (FcγRI (human)): 0.0908 nM | Kd (R131 FcγRIIa (human)): 68.5 nM | Kd (F158 FcγRIIIa (human)): 50.2 nM | Kd (V158 FcγRIIIa (human)): 12.4 nM | Kd (FcγRIIb (human)): 84.2 nM

alemtuzumab IgG1 V264I/I332E (antibody)
Fold WT [1]: 4 fold | Kd [1]: 17 nM | Fold WT [2]: 14 fold | Kd [2]: 52 nM | Fold WT [4]: 12.8 fold | IC50 [4]: 0.5 nM | Fold WT [5]: 15.6 fold | IC50 [5]: 1.1 nM | ADCC EC50, DoHH-2 target cells, PBMCs V158/F158 FcγRIIIa [3]: 4 ng/mL | ADCC Fold WT, DoHH-2 target cells, PBMCs V158/F158 FcγRIIIa [3]: 2.5 fold | ADCC log(EC50), DoHH-2 target cells, PBMCs V158/F158 FcγRIIIa [3]: 0.6 log(ng/ml)

trastuzumab IgG1 E272H (antibody)
Fold WT [1]: 0.65 fold

alemtuzumab IgG1 E272P (antibody)
Fold WT [1]: 1.41 fold | Fold WT [4]: 1.46 fold

alemtuzumab IgG1 I332D (antibody)
Fold WT [1]: 11.2 fold

alemtuzumab IgG1 S298A/E333A/K334A (antibody)
Kd [1]: 39 nM | Kd [2]: 156 nM

trastuzumab IgG1 I332D (antibody)
Fold WT [1]: 2.57 fold | Fold WT [4]: 19 fold

alemtuzumab IgG1 E283H (antibody)
Fold WT [1]: 2.31 fold

alemtuzumab IgG1 S239D/I332E (antibody)
ADCC EC50, DoHH-2 target cells, PBMCs V158/F158 FcγRIIIa [3]: 3 ng/mL | ADCC Fold WT, DoHH-2 target cells, PBMCs V158/F158 FcγRIIIa [3]: 3.3 fold | ADCC log(EC50), DoHH-2 target cells, PBMCs V158/F158 FcγRIIIa [3]: 0.49 log(ng/ml)

alemtuzumab IgG1 I332E (antibody)
Kd [1]: 31 nM | Kd [2]: 72 nM

alemtuzumab IgG1 T260H (antibody)
Fold WT [1]: 1.86 fold
